The target in the assay is T1, full-length hGPRASP2, purified recombinant (human, UniProt Q96D09 1-838).
T1 construct: human G protein-coupled receptor associated sorting protein 2 (GPRASP2), full length, cloned into pETM-11; source: E. coli Rosetta2 (DE3), purified (IMAC, TEV cleavage, second IMAC, SEC on Superdex 200); not shown: His6, N-terminal, cleaved
T1 sequence (looked up): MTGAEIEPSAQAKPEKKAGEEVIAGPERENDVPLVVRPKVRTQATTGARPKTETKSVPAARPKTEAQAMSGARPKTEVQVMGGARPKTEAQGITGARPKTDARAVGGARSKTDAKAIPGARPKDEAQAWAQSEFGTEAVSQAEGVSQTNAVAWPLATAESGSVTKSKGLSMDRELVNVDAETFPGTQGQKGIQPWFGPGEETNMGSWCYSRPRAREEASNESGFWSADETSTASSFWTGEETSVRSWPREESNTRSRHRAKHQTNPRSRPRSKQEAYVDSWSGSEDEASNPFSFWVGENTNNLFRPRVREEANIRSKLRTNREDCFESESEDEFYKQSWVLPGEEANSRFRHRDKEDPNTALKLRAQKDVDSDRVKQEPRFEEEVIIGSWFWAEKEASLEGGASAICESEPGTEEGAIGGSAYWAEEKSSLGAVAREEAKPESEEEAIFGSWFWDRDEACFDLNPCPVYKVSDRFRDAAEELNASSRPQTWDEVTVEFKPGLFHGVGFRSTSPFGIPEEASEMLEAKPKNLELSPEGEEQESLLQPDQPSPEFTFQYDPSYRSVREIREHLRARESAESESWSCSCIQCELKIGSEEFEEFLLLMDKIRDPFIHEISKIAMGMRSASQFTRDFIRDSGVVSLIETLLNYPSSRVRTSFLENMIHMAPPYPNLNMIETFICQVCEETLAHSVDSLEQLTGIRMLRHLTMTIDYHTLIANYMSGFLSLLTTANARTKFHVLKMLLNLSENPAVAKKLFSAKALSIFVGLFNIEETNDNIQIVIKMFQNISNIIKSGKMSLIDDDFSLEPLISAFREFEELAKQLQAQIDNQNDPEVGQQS
The assay can be described thus: NMR titration; 1D 1H NMR (…), 800 MHz, 298 K; 100 μM peptide before and after addition of hGPRASP2 to 4 μM (1:25 hGPRASP2:peptide); 50 mM Tris.HCl pH 8, 300 mM NaCl, 0.01% 1-thioglycerol; line broadening and loss of intensity of the peptide signals. The conditions noted are these: both partners purified.

As to KATLLIWRRTWCRL (peptide, UniProt Q99835 539-552, looked up, source: synthetic peptide (PSL GmbH)) [hSMO-WT peptide (human SMO aa 539-552)], the binding result is listed as “binds”.
